Where two headings read alike, the source gives them in different places.
Columns and labels:
XIAP [1] = molecular target: T1, XIAP (UniProt P98170 1-497); assay: IP from THP1 cells with or without MDP (1 ug/ml, 30 min), 6 M urea lysis; western blot XIAP
Procedure: (§1) THP1 cells were treated with PBS or MDP (1 μg/ml, 30 min). Cells were lysed in 6M urea buffer and immunoprecipitated using indicated RIP2-ubiquitin, K63-linear ubiquitin chain bispecific or control antibodies.

RIP1 = molecular target: T2, RIP1; assay: IP with K63-Lin from THP1 cells treated with PBS, TNF, MDP or LPS, 6 M urea lysis; western blot RIP1
T2 construct: also called non-ubiquitinated RIP1 (endogenous, human cell lines); RIPK1
T2 single chain: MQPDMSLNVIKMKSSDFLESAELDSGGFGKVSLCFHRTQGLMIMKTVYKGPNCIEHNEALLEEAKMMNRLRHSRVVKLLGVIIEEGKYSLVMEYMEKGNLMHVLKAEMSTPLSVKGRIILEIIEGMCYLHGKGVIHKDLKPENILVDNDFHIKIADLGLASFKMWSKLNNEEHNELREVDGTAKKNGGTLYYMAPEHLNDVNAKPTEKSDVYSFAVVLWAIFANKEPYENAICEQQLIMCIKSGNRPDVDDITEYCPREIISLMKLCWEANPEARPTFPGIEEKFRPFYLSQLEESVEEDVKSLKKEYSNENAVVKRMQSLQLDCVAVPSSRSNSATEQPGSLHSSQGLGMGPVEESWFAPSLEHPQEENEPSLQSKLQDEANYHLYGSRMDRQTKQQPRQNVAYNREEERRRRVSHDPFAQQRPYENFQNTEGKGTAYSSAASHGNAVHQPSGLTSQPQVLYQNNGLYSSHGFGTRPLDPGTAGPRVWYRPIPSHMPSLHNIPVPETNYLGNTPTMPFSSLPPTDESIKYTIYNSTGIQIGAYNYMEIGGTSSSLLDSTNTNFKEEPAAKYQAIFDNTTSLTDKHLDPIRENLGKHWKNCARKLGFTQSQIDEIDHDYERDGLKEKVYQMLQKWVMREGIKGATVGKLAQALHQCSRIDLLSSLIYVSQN

c-IAP1 [2] = molecular target: T3, c-IAP1 (UniProt Q13490 1-618); assay: IP from THP1 cells with or without MDP (1 ug/ml, 30 min), 6 M urea lysis; western blot c-IAP1
T3 sequence (Q13490 whole entry): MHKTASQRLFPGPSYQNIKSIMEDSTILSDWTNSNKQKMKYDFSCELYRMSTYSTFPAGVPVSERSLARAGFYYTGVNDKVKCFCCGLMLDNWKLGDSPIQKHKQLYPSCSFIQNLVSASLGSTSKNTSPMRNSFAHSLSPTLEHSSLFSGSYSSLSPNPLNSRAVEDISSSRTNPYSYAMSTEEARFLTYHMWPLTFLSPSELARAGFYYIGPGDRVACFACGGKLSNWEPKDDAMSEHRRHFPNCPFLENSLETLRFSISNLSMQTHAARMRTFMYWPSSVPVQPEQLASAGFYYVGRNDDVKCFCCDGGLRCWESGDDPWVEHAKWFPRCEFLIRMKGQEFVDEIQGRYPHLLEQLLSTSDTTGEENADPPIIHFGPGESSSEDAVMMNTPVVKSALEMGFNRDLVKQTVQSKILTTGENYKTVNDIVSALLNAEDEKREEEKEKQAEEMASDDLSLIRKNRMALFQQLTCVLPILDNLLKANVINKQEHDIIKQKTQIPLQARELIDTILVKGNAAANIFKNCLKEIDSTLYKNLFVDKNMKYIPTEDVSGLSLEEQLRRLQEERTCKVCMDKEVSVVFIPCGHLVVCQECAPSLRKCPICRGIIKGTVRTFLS
Procedure: as §1

RIP3 [3] = assay: IP from HT29 WT or RIP1 KO cells with or without TBZ; western blot RIP3
Sequence of RIP3 (chain, as listed by the source limits assumed): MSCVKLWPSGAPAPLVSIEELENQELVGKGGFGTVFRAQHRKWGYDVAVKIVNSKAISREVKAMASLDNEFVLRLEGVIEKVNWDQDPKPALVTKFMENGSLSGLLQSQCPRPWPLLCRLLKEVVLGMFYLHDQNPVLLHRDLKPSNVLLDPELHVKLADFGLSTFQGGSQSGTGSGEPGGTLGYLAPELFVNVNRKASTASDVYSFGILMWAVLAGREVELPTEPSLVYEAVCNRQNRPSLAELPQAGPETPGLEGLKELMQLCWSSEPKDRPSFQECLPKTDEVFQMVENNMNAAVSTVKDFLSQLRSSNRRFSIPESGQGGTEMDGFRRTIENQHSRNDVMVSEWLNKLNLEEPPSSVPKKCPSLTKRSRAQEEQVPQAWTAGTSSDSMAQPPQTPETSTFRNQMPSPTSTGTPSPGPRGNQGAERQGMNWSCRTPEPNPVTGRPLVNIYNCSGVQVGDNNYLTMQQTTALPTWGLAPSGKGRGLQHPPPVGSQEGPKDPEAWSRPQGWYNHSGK

c-IAP1 [4] = molecular target: T3, c-IAP1; assay: immunoprecipitation from MDP-treated THP1 lysates in 6 M urea buffer, western blot
Procedure: as §1

XIAP [5] = molecular target: T1, XIAP; assay: as above
Procedure: as §1

RIP3 [6] = assay: IP from HT29 WT or RIP1 KO cells with or without TBZ; western blot RIP3; remark: listed apart in the source
[7] = molecular target: T4, RIP2 modified by mixed and/or branched K63-linked and linear ubiquitin chains (UniProt P0CG48 1-76); assay: IP from THP1 cells untreated or treated with MDP (1 ug/ml, 30 min), 6 M urea lysis; western blot RIP2
T4 construct: mature; also called modified RIP2; K63- and linear chain-ubiquitinated RIP2
T4 sequence (chain, as listed by the source limits assumed, chain 1 of 2, other chains not shown): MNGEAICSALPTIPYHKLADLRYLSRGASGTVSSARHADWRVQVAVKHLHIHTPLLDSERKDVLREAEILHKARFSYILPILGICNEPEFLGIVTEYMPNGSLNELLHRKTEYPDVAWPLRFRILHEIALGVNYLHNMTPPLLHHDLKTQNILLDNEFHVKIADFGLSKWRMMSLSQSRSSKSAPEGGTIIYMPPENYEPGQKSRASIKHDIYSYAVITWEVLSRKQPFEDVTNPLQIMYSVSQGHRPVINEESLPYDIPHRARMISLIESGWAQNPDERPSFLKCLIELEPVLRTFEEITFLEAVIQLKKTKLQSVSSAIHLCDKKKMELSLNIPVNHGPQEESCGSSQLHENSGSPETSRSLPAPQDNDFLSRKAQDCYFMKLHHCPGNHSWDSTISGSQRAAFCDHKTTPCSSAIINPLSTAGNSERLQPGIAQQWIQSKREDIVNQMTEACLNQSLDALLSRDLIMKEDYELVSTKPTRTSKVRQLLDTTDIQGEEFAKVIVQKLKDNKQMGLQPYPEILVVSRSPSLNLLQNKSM

TRAF2 = molecular target: T5, TRAF2 (UniProt Q12933 2-501); assay: immunoprecipitation from cell lysates in 6 M urea buffer, western blot
T5 sequence (looked up): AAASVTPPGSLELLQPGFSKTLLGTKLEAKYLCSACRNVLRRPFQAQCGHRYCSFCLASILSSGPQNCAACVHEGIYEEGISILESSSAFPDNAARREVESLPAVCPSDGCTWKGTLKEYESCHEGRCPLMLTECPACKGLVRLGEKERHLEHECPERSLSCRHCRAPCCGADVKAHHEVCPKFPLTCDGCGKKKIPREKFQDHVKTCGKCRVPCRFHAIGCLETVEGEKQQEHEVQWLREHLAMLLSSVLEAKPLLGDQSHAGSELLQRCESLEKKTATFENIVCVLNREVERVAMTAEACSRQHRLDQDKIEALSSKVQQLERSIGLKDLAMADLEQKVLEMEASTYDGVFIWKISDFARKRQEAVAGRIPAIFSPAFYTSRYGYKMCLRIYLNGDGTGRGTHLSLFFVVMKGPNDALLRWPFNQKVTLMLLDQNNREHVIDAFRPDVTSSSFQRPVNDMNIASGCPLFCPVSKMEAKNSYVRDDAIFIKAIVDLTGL

RIP2 = molecular target: T6, RIP2 (Homo sapiens (Human), UniProt O43353 1-540); assay: as above
T6 construct: also called RIPK2
T6 sequence (O43353 whole entry): as the sequence (chain, as listed by the source limits assumed, chain 1 of 2, other chains not shown) above

XIAP [8] = molecular target: T1, XIAP; assay: IP from THP1 cells with or without MDP (1 ug/ml, 30 min), 6 M urea lysis; western blot XIAP (label cut to XIA on the sheet)
c-IAP1 [9] = molecular target: T3, c-IAP1; assay: IP from THP1 cells with or without MDP (1 ug/ml, 30 min), 6 M urea lysis; western blot c-IAP1; remark: listed apart in the source

Measured: binding result

T1 sequence (P98170 whole entry): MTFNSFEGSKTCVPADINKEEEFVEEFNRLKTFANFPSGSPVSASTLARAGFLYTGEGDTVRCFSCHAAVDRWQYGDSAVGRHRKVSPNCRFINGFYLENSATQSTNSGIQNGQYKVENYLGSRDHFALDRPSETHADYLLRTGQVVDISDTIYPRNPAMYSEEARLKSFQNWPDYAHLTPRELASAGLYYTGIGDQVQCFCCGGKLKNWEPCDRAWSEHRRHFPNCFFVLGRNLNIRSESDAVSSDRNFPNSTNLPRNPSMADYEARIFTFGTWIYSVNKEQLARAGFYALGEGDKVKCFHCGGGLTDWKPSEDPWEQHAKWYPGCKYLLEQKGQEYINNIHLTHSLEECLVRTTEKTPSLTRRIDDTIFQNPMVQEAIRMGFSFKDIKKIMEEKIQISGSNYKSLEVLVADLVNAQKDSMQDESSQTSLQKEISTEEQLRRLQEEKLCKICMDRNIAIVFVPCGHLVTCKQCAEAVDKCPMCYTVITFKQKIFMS

B1: anti-M1/anti-K63 bispecific antibody (bispecific antibody, V domains shown)
VH 1: EVQLVESGGGLVQPGGSLRLSCAASGFNVKTGLIHWVRQAPGKGLEWVAYITPYYGSTSYADSVKGRFTISADTSKNTAYLQMNSLRAEDTAVYYCAREYYRWYTAIDYWGQGTLVTVSS
VL 1: DIQMTQSPSSLSASVGDRVTITCRASQSVSSAVAWYQQKPGEAPKLLIYSARSLYSGVPSRFSGSRSGTDFTLTISSLQPEDFATYYCQQYSSYSSLFTFGQGTKVEIK
VH 2: EVQLVESGGGLVQPGGSLRLSCAASGFTFSNTYISWVRQAPGKGLEWVASITPSSGQTDYADSVKGRFTISADTSKNTAYLQMNSLRAEDTAVYYCARTWLLRWVMDLWGQGTLVTVSS
VL 2: DIQMTQSPSSLSASVGDRVTITCRASQDVSTAVAWYQQKPGKAPKLLIYSAKFLYSGVPSRFSGSGSGTDFTLTISSLQPEDFATYYCQQSYTTPPTFGQGTKVEIK
notes: also called K63-Lin; K63-linear ubiquitin chain bispecific antibody
no binding: XIAP [1] | RIP1 | c-IAP1 [2] | RIP3 [3]

B2: anti-RIP2/anti-M1 bispecific antibody (bispecific antibody, human IgG1, kappa)
heavy 1: not shown
light 1: DIQMTQSPSSLSASVGDRVTITCRASQDVSTAVAWYQQKPGKAPKLLIYSAKFLYSGVPSRFSGSGSGTDFTLTISSLQPEDFATYYCQQSYTTPPTFGQGTKVEIKRTVAAPSVFIFPPSDEQLKSGTASVVCLLNNFYPREAKVQWKVDNALQSGNSQESVTEQDSKDSTYSLSSTLTLSKADYEKHKVYACEVTHQGLSSPVTKSFNRGEC
heavy 2: not shown
light 2: not shown
notes: also called RIP2-Lin
no binding: c-IAP1 [4] | XIAP [5]

B3: anti-RIP1/anti-K63 bispecific antibody (bispecific antibody, human IgG1, kappa)
heavy 1: not shown
light 1: DIQMTQSPSSLSASVGDRVTITCRASQSVSSAVAWYQQKPGEAPKLLIYSARSLYSGVPSRFSGSRSGTDFTLTISSLQPEDFATYYCQQYSSYSSLFTFGQGTKVEIKRTVAAPSVFIFPPSDEQLKSGTASVVCLLNNFYPREAKVQWKVDNALQSGNSQESVTEQDSKDSTYSLSSTLTLSKADYEKHKVYACEVTHQGLSSPVTKSFNRGEC
heavy 2: not shown
light 2: NIMMTQSPSSLAVSAGQKVTMNCKSSQNVIYTSNQRNYLAWYQQKPGQSPKLLIYWASTRVSGVPDRFTGSGSGTDFTLTISSVEVEDLAVYYCHQYLSSWTFGGGTKVEIKRTVAAPSVFIFPPSDEQLKSGTASVVCLLNNFYPREAKVQWKVDNALQSGNSQESVTEQDSKDSTYSLSSTLTLSKADYEKHKVYACEVTHQGLSSPVTKSFNRGEC
notes: also called RIP1-K63; RIP1-K63 ubiquitin chain bispecific antibody
no binding: RIP3 [6] | [7] | TRAF2 | RIP2

B4: anti-RIP2/anti-K63 bispecific antibody (bispecific antibody, human IgG1, kappa)
heavy 1: not shown
light 1: DIQMTQSPSSLSASVGDRVTITCRASQSVSSAVAWYQQKPGEAPKLLIYSARSLYSGVPSRFSGSRSGTDFTLTISSLQPEDFATYYCQQYSSYSSLFTFGQGTKVEIKRTVAAPSVFIFPPSDEQLKSGTASVVCLLNNFYPREAKVQWKVDNALQSGNSQESVTEQDSKDSTYSLSSTLTLSKADYEKHKVYACEVTHQGLSSPVTKSFNRGEC
heavy 2: not shown
light 2: not shown
notes: also called RIP2-K63
no binding: XIAP [8] | c-IAP1 [9]

B5: anti-RIP1/anti-M1 bispecific antibody (bispecific antibody, human IgG1, kappa)
heavy 1: not shown
light 1: DIQMTQSPSSLSASVGDRVTITCRASQDVSTAVAWYQQKPGKAPKLLIYSAKFLYSGVPSRFSGSGSGTDFTLTISSLQPEDFATYYCQQSYTTPPTFGQGTKVEIKRTVAAPSVFIFPPSDEQLKSGTASVVCLLNNFYPREAKVQWKVDNALQSGNSQESVTEQDSKDSTYSLSSTLTLSKADYEKHKVYACEVTHQGLSSPVTKSFNRGEC
heavy 2: not shown
light 2: NIMMTQSPSSLAVSAGQKVTMNCKSSQNVIYTSNQRNYLAWYQQKPGQSPKLLIYWASTRVSGVPDRFTGSGSGTDFTLTISSVEVEDLAVYYCHQYLSSWTFGGGTKVEIKRTVAAPSVFIFPPSDEQLKSGTASVVCLLNNFYPREAKVQWKVDNALQSGNSQESVTEQDSKDSTYSLSSTLTLSKADYEKHKVYACEVTHQGLSSPVTKSFNRGEC
notes: also called RIP1-Lin; RIP1-Lin ubiquitin chain bispecific antibody
no binding: TRAF2 | RIP2 | RIP3 [3]

Source: patent US20240369575A1 (Genentech, published 2024)
